Data reported in patent publication WO1995033832A1.

Tests used:
[1] = molecular target: recombinant Hepatitis B virus surface antigen (HBsAg) (Hepatitis B virus); assay: ELISA; scFv preincubated with HBsAg in solution, molar ratio fragment:antigen 1:3.5; inhibition of binding to coated HBsAg
[2] = molecular target: recombinant Hepatitis B virus surface antigen (HBsAg) (Hepatitis B virus); assay: ELISA; scFv preincubated with HBsAg in solution, molar ratio fragment:antigen 1:0.14; inhibition of binding to coated HBsAg
[3] = molecular target: recombinant Hepatitis B virus surface antigen (HBsAg) (Hepatitis B virus); assay: immunoaffinity column, scFv on Sepharose CL-4B; Expt. 4, crude semipurified HBsAg, 2 mg loaded
[4] = molecular target: recombinant Hepatitis B virus surface antigen (HBsAg) (Hepatitis B virus); assay: immunoaffinity column, scFv on Sepharose CL-4B; Expt. 6, crude semipurified HBsAg, 2 mg loaded
[5] = molecular target: recombinant Hepatitis B virus surface antigen (HBsAg) (Hepatitis B virus); assay: ELISA, plates coated with recombinant HBsAg 5 ug/ml; renatured scFv, not purified; detected with rabbit anti-Fab and Protein A-HRP
[6] = molecular target: recombinant Hepatitis B virus surface antigen (HBsAg) (Hepatitis B virus); assay: immunoaffinity column, scFv on Sepharose CL-4B; Expt. 5, crude semipurified HBsAg, 2 mg loaded
[7] = molecular target: recombinant Hepatitis B virus surface antigen (HBsAg) (Hepatitis B virus); assay: ELISA, plates coated with recombinant HBsAg 5 ug/ml; renatured and IMAC-purified scFv; detected with rabbit anti-Fab and Protein A-HRP
[8] = molecular target: recombinant Hepatitis B virus surface antigen (HBsAg) (Hepatitis B virus); assay: ELISA; scFv preincubated with HBsAg in solution, molar ratio fragment:antigen 1:0.7; inhibition of binding to coated HBsAg
[9] = molecular target: recombinant Hepatitis B virus surface antigen (HBsAg) (Hepatitis B virus); assay: ELISA on coated recombinant HBsAg
[10] = molecular target: recombinant Hepatitis B virus surface antigen (HBsAg) (Hepatitis B virus); assay: immunoaffinity column, scFv on Sepharose CL-4B; Expt. 2, pure HBsAg, 2 mg loaded
[11] = molecular target: recombinant Hepatitis B virus surface antigen (HBsAg) (Hepatitis B virus); assay: scFv on Sepharose CL-4B; saturating pure HBsAg applied, eluted with 3 M KSCN (gel without ligand: 0.012 mg)
[12] = molecular target: recombinant Hepatitis B virus surface antigen (HBsAg) (Hepatitis B virus); assay: immunoaffinity column, scFv on Sepharose CL-4B; Expt. 3, pure HBsAg, 2 mg loaded
[13] = molecular target: recombinant Hepatitis B virus surface antigen (HBsAg) (Hepatitis B virus); assay: immunoaffinity column, scFv on Sepharose CL-4B; Expt. 1, pure HBsAg, 2 mg loaded
[14] = molecular target: recombinant Hepatitis B virus surface antigen (HBsAg) (Hepatitis B virus); assay: ELISA; scFv without HBsAg in solution, molar ratio fragment:antigen 1:0 (reference)

Q: Which results are given for “anti-HBsAg scFv (recombinant single chain Fv antibody fragment, VH-linker-VL, from MAb CB-Hep.1, expressed in E. coli from pPACIB.1/scFv anti HBsAg)”?
A: % inhibition [1]: 95.1%; % inhibition [2]: 12.8%; mg HBsAg eluted/ml gel (mg HBsAg eluted/ml gel) [3]: 0.45; mg HBsAg eluted/ml gel (mg HBsAg eluted/ml gel) [4]: 0.42; Absorbance at 492 nm (absorbance at 492 nm) [5]: 1.54; mg HBsAg eluted/ml gel (mg HBsAg eluted/ml gel) [6]: 0.26; Absorbance at 492 nm (absorbance at 492 nm) [7]: 0.68; % inhibition [8]: 76.4%; optimal binding concentration (saturation) [9]: 37 µg/mL; mg HBsAg eluted/ml gel (mg HBsAg eluted/ml gel) [10]: 0.34; Amount of eluted HBsAg [11]: 0.126 mg; mg HBsAg eluted/ml gel (mg HBsAg eluted/ml gel) [12]: 0.51; mg HBsAg eluted/ml gel (mg HBsAg eluted/ml gel) [13]: 0.54; % inhibition [14]: 0%
